Experimental data: article PMC6053440, “Cellular stress induces erythrocyte assembly on intravascular von Willebrand factor strings and promotes microangiopathy” (Scientific Reports, 2018)

Molecular target: T1, von Willebrand factor, human plasmatic (human, UniProt P04275 764-2813)
T1 construct: von Willebrand factor, human, from plasma; multimeric glycoprotein; Multimer of disulfide-linked subunits; The results call the VWF of the ELISA recombinant, but the methods name plasmatic VWF; also called VWF; plasmatic VWF; source: bought: Calbiochem (human plasmatic VWF)
T1 sequence (P04275 764-2813): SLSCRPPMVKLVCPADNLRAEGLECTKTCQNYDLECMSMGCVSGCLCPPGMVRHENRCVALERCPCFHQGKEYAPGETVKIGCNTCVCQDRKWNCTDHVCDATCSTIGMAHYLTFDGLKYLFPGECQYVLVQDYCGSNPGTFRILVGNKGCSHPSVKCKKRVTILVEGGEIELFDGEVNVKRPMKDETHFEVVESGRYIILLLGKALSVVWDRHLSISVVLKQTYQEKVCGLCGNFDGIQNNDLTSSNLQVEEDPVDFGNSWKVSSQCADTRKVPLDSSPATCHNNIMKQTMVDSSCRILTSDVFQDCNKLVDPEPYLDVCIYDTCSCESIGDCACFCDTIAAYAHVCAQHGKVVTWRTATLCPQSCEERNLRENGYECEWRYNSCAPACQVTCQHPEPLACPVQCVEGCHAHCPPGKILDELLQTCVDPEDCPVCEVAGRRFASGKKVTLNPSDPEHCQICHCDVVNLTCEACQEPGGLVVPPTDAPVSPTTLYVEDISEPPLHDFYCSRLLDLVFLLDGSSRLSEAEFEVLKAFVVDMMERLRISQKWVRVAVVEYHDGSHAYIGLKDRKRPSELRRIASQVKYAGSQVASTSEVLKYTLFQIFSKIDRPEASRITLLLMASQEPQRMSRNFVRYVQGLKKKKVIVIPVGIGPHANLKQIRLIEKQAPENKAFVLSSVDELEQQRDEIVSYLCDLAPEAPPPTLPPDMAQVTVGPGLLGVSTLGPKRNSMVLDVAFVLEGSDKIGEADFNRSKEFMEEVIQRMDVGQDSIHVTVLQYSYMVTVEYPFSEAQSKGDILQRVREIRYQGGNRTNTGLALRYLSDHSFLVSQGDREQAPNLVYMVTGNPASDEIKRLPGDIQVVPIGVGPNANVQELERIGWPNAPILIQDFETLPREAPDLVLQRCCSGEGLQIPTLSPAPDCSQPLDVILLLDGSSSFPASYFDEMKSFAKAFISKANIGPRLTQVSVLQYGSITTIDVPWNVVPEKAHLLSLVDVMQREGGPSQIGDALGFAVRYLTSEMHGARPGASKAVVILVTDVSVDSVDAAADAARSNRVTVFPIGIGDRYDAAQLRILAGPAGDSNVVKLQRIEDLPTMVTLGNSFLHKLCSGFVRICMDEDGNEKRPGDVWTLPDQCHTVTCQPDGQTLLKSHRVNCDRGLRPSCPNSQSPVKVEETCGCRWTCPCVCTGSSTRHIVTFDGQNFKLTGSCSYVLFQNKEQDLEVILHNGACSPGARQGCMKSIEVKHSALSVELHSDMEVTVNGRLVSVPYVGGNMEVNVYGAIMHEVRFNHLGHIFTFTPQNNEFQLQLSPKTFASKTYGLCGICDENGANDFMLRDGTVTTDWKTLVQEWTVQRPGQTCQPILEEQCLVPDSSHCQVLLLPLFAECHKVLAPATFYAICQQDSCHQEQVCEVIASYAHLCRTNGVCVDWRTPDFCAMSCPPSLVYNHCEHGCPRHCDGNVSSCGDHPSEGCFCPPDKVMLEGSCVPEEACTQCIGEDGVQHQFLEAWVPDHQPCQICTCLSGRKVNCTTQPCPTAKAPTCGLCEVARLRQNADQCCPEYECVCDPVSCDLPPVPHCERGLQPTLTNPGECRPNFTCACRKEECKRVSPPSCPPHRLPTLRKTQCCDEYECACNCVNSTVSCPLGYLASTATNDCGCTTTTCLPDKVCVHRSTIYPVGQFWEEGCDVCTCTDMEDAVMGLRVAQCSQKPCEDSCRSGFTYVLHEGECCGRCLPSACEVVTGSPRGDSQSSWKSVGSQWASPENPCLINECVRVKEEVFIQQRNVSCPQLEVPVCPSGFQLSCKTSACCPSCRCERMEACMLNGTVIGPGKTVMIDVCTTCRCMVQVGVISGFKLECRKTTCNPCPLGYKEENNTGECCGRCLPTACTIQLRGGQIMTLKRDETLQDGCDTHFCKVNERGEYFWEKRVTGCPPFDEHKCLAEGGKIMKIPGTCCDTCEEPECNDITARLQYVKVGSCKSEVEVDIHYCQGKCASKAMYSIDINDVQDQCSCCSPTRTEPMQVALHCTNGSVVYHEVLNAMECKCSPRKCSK
Assay: ELISA; 96-well plates coated with 20 µg/ml AV; human plasmatic VWF added at 0.15, 0.5, 1.0 and 1.5 µg/ml; bound VWF detected colorimetrically with peroxidase-labelled anti-human VWF antibody; washing with calcium-free buffer
Conditions: both partners purified

B1: Annexin V (natural protein, human, UniProt P08758 1-320, looked up)
chain: MAQVLRGTVTDFPGFDERADAETLRKAMKGLGTDEESILTLLTSRSNAQRQEISAAFKTLFGRDLLDDLKSELTGKFEKLIVALMKPSRLYDAYELKHALKGAGTNEKVLTEIIASRTPEELRAIKQVYEEEYGSSLEDDVVGDTSGYYQRMLVVLLQANRDPDAGIDEAQVEQDAQALFQAGELKWGTDEEKFITIFGTRSVSHLRKVFDKYMTISGFQIEETIDRETSGNLEQLLLAVVKSIRSIPAYLAETLYYAMKGAGTDDHTLIRVMVSRSEIDLFNIRKEFRKNFATSLYSMIKGDTSGDYKKALLLLCGEDD
notes: Annexin V (annexin A5), human, purified from placenta; The methods of the ELISA name AV purified from human placenta (Sigma-Aldrich), but the results call it recombinant AV; In the flow adhesion experiments purified recombinant AV (BD Biosciences, 10 µg/ml) was added, and the erythrocytes' own AV was also present; also called AV; source: bought: Sigma-Aldrich, purified AV from human placenta
B1: binds.
